Tests used:
[1] = target: photosystem II monomer core complex (PSIIm), His6-tagged on PsbE (N. tabacum | N. tabacum (endogenous in tobacco thylakoids)) (UniProt P69384)
[2] = target: T1, PSIIm-S/27 (monomeric photosystem II-PsbS/Psb27 complex) (Nicotiana tabacum, UniProt P69556+P69686); test: flash-induced chlorophyll fluorescence decay; format: biochemical; settings: 10 µM DCMU, 15 °C (also 20 °C), pH 6.5; QB site, blocks electron transfer from QA
T1 construct: gene psbA; native PSII core monomer from stromal lamellae/grana margins; His6 tag at 5' end of psbE; beta-DDM; PsbS and Psb27 quasi-stoichiometric; with Photosystem II CP47 reaction center protein; Photosystem II CP43 reaction center protein; Cytochrome b559 subunit alpha; Cytochrome b559 subunit beta; Photosystem II 22 kDa protein, chloroplastic; Photosystem II repair protein PSB27, chloroplastic

Sequence of PsbS (Q9SMB4 67-274): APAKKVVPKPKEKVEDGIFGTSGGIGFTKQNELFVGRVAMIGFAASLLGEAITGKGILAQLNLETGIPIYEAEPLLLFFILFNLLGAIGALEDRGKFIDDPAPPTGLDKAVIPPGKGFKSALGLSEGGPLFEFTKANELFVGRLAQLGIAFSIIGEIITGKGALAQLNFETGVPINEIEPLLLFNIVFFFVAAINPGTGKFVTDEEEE

Row | decay of flash-induced chlorophyll fluorescence yield (QA^•− oxidation) at 15 °C, PSIIm-S/27 against PSIIm [1] [fold] | Compound | flash-induced chlorophyll fluorescence decay [2]
1 | 10 | Psb27 (natural protein) | 
2 |  | CN(C)C(=O)Nc1ccc(Cl)c(Cl)c1 [DCMU] | presence of PsbS and/or Psb27 does not interfere with the DCMU binding
3 | 10 | PsbS (from UniProt Q9SMB4 67-274) (natural protein) | 
